In a protein production outcome set (Wang et al. 2014) one finds protein production data, which are given here for 17 sequences.

This series in a line: label from the status in PepcDB records.
“MNEQPAACRIKVEALGAGFAPAAEQWAERLGLALQVDEAEFALQVGEQGLQLQQLGPDAPGPVRVDFVEGGAAHRRLYGGGSGQMIAKAVGVAQGVRPRVLDATAGLGKDGFVLATLGCEMSLIERQPLIGALLEDGLARAAQDAEVGPIVARMHLLKGNSIELMRNWQGEPPQVIYLDPMFPHREKSALVKKEMRLFRPLVGDDNDAPALLAAALALASHRVVVKRPRKAPCIEGPKPSHGLEGKSSRYDIYPKKALKALEHHHHHH”: the protein production result is given as “failed”.
For “MNERPATIEELICAAEARLRADPTQVKTVIEDLAHLEAQGYPAGPATVLIFDGNARVMSGDFAGARPVLEKGLALSTELEEPTLQVRALTGLAVLHVGTGAYGQALEYHMQSMQLARTLENGGLLSRSLIYVGSLYAALRNFEQAQAYHREAVEHAASAGRSTFMARLALATDEAQLGHLEEALQQRRELLVEARQTASRAEEAFVLADLAANLLQLDQRAEARQLASEALKRAEALGLQLEKGQALIILASLDIREGQFESAHQALHEVLEIGQRLASIQLLIPVHEELSRLFEQQGDFAGALRHTRVHYELKSSELTRLAERRSQVLEAELKVELLRQQAEEKERQNLALVAINEHLRETQKRLQYAATHDALTGLLVRTALEETVEDDLLLSPERRRALFMIDVDHFKQINDALGHHVGDRFLQELARRLRGALRPTDIVARQGGDEFTIYLRELDSPEEAVALGQQLLRDIAAPVQVEGHLLNVTVSIGIAVYPDDGRDVMTLEKHADLALYRAKEQRHQVCRFQKPAD”, the protein production entry was “failed”.
The result for “MNESPKEGAGGAPDYDVWEAEVKSSRGLPLVWLIPLVALGIGIWLAYRTLSEEGPTITLLFKEAPGLEAGKSKIKFKDVEIGTVESVVLNEDLTGVVVTAKMEKHVATHLGENTAFWVVKPELGLGGVSGLDTLMAGNYIAVEFGGGKVVRRFVGLERPPRIKADTPGRSFFLSADNAGPLKYGTPVYFRDIEVGQVVNVGLAEDNRSVQVEIFIDAPYHRLVHNSTRFWQVSGIDLSLSAQGVNLKVGSIMSLLQGGITFETPTLNDPKVQSSEPNTRFRLHKDFASIAEGTYTLRQPYLLFFDDSVRGLNVGAPVELKGIRVGTVTELKLALDFGAHKIRIPVVIEIDPERLIPYGAEEIIERAKKEYKAAMEAGRRPFMEKLVERGLRARLRTGNLLTGQLYVDLDFYPESPPKSLDYSGQYPELPTLPSVADELQRNVTEIIANLKKIPLDKIGQELLGTVQGSNRLLNSPELKGAVGSLNLALKDLRHLAQTADREMVTLTSAAEKSLSSTARVLEQLEPGSAMAVDISNALEELAASARSIRALTDYLERHPEALLHGKGGSGGKP” reads “failed”; that for “MNESVDTDEATTPLVSAIIPTYGRNERLSSAIQSVLEQTYDNIELFVVDDASPTPVRETLDSFDPTVENSFRILRHDENQGANAARNTGIRASDGRYVAFLDDDDQWDETKITKQVQAFQESDSETGVVYTGVRKDGPEGTTVSTPVASGDVMKDLLTGTNFGQFSSVMVDTTVIETAGLPDERLPAWQDREWFFRLAQHTHFRPVRETLTYRQTGLPGSITKKYEQKRDVAYPMLISKHDWVAAEYGIYYERMFKATMRRSLARSAVRADRYKEARKYFLLSALANPLYWPVYPHLFASLGGKWSYESIASLRQQVTNGPASGTLEHHHHHH”, “failed”; that for “MNEYDEECLLTFLKKQSQLFDEPVAETMEEAEAFLEDCMAVVVDSLDEVREYFEESGADVENMLEHHHHHH”, “not failed”.
Consider “MNFDLYMNGVVEQARNEIESAGYEQLTTAEDVDKVLKQDGTTLVMINSVCGCAGGIARPAASHALHYDVLPDRLVTVFAGQDKEATQRAREYFEGYAPSSPSFALVKDGKITEMIERHQIEGHDVMNVINQLQTLFNKYC”, for which the protein production entry is “not failed”.
Under “MNFDTIIIGGGMAGLSCALRCLEAGLKTAVIASGQSALHFSSGSIDVLAKTPSGKHVINPMDSLETFSKEYPSHPYAALGKETVERAINWYKTTLSAIGVPLTSQKDGLNHYRLTPLGTMKSTWLSQPFVHQFPMDLEKNKTQKMVLITIDGFRDFQPKLAQDNLKQITQLSDLEIATASISLSAFNDIQRNHCELRSIDISRLLSKRANRQELAYALQQHANPGDLVVLPSIFGNGTGLSYLREIEQLTKLTLCEVPTMPPSLLGIRLEESMKHAFIELGGTMLNGDHVVQGEFSYVDKSDPEHSHYRLNRLFTKNHGDFPLQAKQFVLATGSFFSQGLKANVDSMIEPIFGLDIAQSDKRTDWYSHDFFSTQSHPFLSMGIKTTANFQAIKSGHVIDNLYCAGAILSGYNPILEGSGSGVAISSGFHAAESIIEQLQCSDSLQNNNTKAEVAL” stands “failed”; under “MNFIRIVKFDFKNIIRNPMLLFFNTIFPLILIGSIGFVMKNGYGSFNVTSYDYYGVTMMIFTAFIICITASNTFMEKSVKKGNTRIVYAPVSKAEIYLSKIISTYILGSIFYSIIIVLGKYVLNINYGTRSTIYIIILINMLTLFGCCLGVLFCCIFKSEEGANSVLQIVIMLFIFFGGVFFPVYSLGKIVESISNLSPLKWITECIFRIIYDNDFSIYLPTIGVMLVSSIICIVICQIIFKPEEYV”, “failed”; under “MNFKESRAIYLQIADRICDDILLGQYEEEGRIPSVREYASIVEVNANTVMRSYEYLQSQEVIYNKRGIGFFVASGAKMLIHSLRKEQFLKEEVGSFFRQLYTLGISIKEIEKMYYEFIQRQNQ”, “not failed”.
Turning to “MNFLNENEKKITLIPPPEFVQYVGGHFEEVGKEFMQYFIEIGNLKSNETVLDVGCGIGRMAVPLMNYLSDDGTYYGFDLFNKGITWCKNNISTRRNNFHFEHVDIYNQFYNPDGKEDASQYKFPYEDESFDFIFLTSVFTHLLPKELEHYVREIARVLKKDGRCFITFFLINPESSYYLNAGLSPLGFYHQIDNCYVLNKDIPNFAVAYPEEDIRTLLNKYGLEMQTPPHYGSWCGRTEHTSYQDIILAQKISER”, the protein production result was “failed”.
The result for “MNFWEVVLIVVNFSLLSWILLIGRETKKWSKLATLIAVVMVTVQLLAEGFRWQMIPAYVSPVILILCYLLAGRKKGFRSSGIFIVKTSLLCIYLSVAVALPLLMPVFSFEEPTGPHRVGTKLYHWVDHQRNEPYSKNPNDRRELMVQIWYPAAEKSKGDPEPYIRNINELSKGLEKTLSIPAFAFSHMELVKSHSFMDLQLSDSENHYPILLFSHGFNGFRNQNTFQVEELASQGYIVLSIDHTFDAAATVFPGGRTAYVQPINLTDEGDSHIKLWEEDVSFVLNQIEKLNENDETGFFTGRLDTSRIGMFGHSYGGATAAQILAKDSRVKAAINMDGTLYGEILPESGIGKPFLLMNAEEPDEADPFEVRERYGRGLAGGGMSMVIPHTDHTSFTDLHLFSPLLQSPGENPKEVHRIINEFSLAFFDQYVKQKDDGSTLKRLITQYPEVNFKINR” reads “failed”; that for “MNGIHDVGGMDGFGKVMYVKEEEDIYFTHDWERLALGLVAGCMAQGLGMKAFDEFRIGIELMRPVDYLTSSYYGHWIATVAYNLVDTGVLDEKELDERTEVFSKKPDTKIPRREDPALVKLVEKALNDGLSPLREISASPRFKVGERIKTKNIHPTGHTRFPRYARDKYGVIDEVYGAHVFPDDAAHRKGENPQYLYRVRFEAEELWGYKQKDSVYIDLWESYMEPVSH”, “not failed”; that for “MNGVLEQHWTGEGRRLRAAPAVLCLLLGTALAGCGDMNRFQTAAAPPTVAMPKPKPAVAQTPATEKEHERILASYGGTYDDPRLESLVTKTVDRLVAASDRPDQGYRITILNSGAVNAFALPNGQLYVTRGLLALASDTSELSSVLSHEMAHVLSKHAAMREDQARQAAIVTRVVTDMSNDPDLTALALAKTKLTMASFSRNQEFEADGIGVGISARAHFDPYGAARFLSAMERNAELKAGKTSLDPRAQDFTSSHPATPERVQNAQTIARQYVAPEGGERDRESYLAAIDNLVYGEDPERGFCPRPAFPASEARLHLPGAGQFHARQHRAGGDRRARRRLAGDALRRGAGAGRAVARRLPQFGLDGRRREGVHGRHHHQRLPGRVRHRQGRPVAVQGLCAAFRQRRLPLHLRGTAEVDRERAQCARDRQLVPSPDPRRDPGRPPAAHQGDHRAARRHRGIALPPHGRRRSPRRALPRAQRPRSQRAGEGEGSREGRGGLTLREARVIPGRLARTRDLEPRRHCRRVGKA”, “failed”.
Under “MNHKQYLALAVPLIISTITTPLLGAVDTAVAGQLSSPAYIGGVAVGTMIFNTMYWLLGFLRVSTSGFAAQSLGSQNRSESVLALARPVFIALFAGLMFIILQKPLEYAALTLIQPDRHTAEFASQYFSLRIWGAPFALISYCILGWLMGMSLIKVTLLLQISMNVLNIVLDIVFVYVFHMEVYGIALATLISDVTGCLIGCWLVKTNAAMPFKLPSVKLLFDPKPFKKMMVVNRDLLIRTLCLLTVFNLFTAKGAGFGAEILAANAILIQIHYLMAYVFDGFANASSIFAGKAVGRMDRDLYSRTLSLSIQWSLISAALLSVGYFLLRNAILPLFTPLESVLEAAKTYDVWIALFPLAASFGLVFYGIFTGATEIGPVRNSMFLAVLVFLAAFFTAVPAFGNHGLWLAFLLFSLGRSVFLCMAVPGLTTRLFGERSAAREAGQRPKSLKHPG” stands “failed”; under “MNHLKKLVSILICTLLIVSLLPFSVWADSQERDGTDVEEITTKEKVTQETTSNETTSEPLKGTTVNKAINAKSFPTGNYSGDFSINSQKDVIESGQTVNYNIYLKITGPNTRYQNAKLVINLPKNGEFNQSLNELKIAGATPSYNKTTRQLVYTYQTLNSGVVDKVILKMTTKNGYTPNGTKLVVTGELSADNLSEKVTEQAETTVNATATTALSNDFTKVENSINNNPSQGDIGIWSFNLNIPKKSTGSLFMEEGKKIVIEYTLADKLDYLGVAGDTPEPTKVEGQKLTWEIAAPTYLEQEKANSLLNKTFQIRTFFQPTIPNFATVENKAVATTNFVTLTDSIVDTSKASVSVSASDPATIPPTIGSVYAPAHRGPVDANWGIATVTGNPDIKVYDTAKLGFSLMLNSAMNDSPWYDFLYYDAYYNIDDNLNLDYFRSGDFYFKPNVNYPGWAQLKKSPKYNLLVKYDGDTDWTTLKEDVELSKMYSRKDLGIPDDKHVSKVWLHFTYAPAGMYAADLSFFTTVKEGYVGEVRNSTQINMYGADSQDYIHYYDDTNPWPEAWKNYAGDRTAQIIPQPTGKNKFVQGSVVFDDTDGNLINIGDNSISVNLESNKASISRLKGPFEAMVLLPSGVKMKNTEQNGFKVTVLNENYQNAGRQLLKVKWDKKTLLPAEKLTAKINVSVAKDTPSNMTVEMFGFLQDTDFNVPEVSGTPTISDTKMEIDSNDINQNGNSEESRITSGNHYILNTSNHLKISKKAKGNRDKEYSGLANATTNSIVSYQLSLENDSDEKIANMVLMDVLPSENDLGITDNSERGSKFNLALTKAVEVPKEWKDKVEVTYSTAKNPKRAGILDKHTIYPIGTEPLVDNTEATQADWLTASEVKDWSNIYSFKIELKEGIEWIPGKSMKIQFDLKTPKKNQIDKTLLKQQTKKEDRAAWNSFAVAVNNSQVIEPAQVGVALDDSVAPVTVQYVDQNHKQIASPETLTGAYGEKFTAKQKKINNYSLVKIPANVSGTFNEKAQTITFIYQKVTAGRIIVNYVDKNGEKIADSIVLNGKLNSSYTTSSKKISGYKLYQTPKNATGKFLNTSQTVTYVYERTSNLSISSSNKGTENVKKLAKLPHTGDSTTTNLWVIIGLFMLSGAFVIMKKR”, “failed”; under “MNHVAVIGGGIIGASWAVVFARRGLEVTIVERDAACLAGLPARLAGMIERSASLLGAGEQPGDVAARIGATDALAAAVGRADYVQEAVSENLALKRTLFAELDALAPAHALLASSTSTYGASQFTEALAGRARCLVAHPMTPPHLSPVVEMAASAWTDPQVLAGAEAFMRSLGQHPVRIRKEIPGFVLNRLQGALLMEMFRVIADDVISPADADALISQGLGLRWATLGPLEGVDLNAPGGIADYLQRYGHIFNDMAVGQGLPAPVDAELISALDGAMRAALPLERLEAKRGWRDRAIAGVRVALHDYTGEKPLEHHHHHH”, “failed”.
Under “MNIEEAKELVDNSKFYGKTSSVIKAEVRDIIDQLNQPKPEVPQCVADWIEECKEEDLTLKGLFSNSDMPAKIFDWIFGSDENCRLMAEAWINGYTVEKEKLYTVDLPNGQPLVRGINTLYFSQNLATENVKLTESEIRKDFEWAWQFAEEVTE” stands “failed”.
